# Measurements from patent US20140031259A1.
# How the values were obtained:
# [1] = biological target: AKT1 kinase domain (WT) fused to the Gal4 DNA binding domain (UniProt P04386); experiment: cell-based or functional assay
# [2] = biological target: AKT1 D323H kinase domain fused to the Gal4 DNA binding domain (UniProt P04386); experiment: cell-based or functional assay
substance,measurement,setting,value
AKT1 L52R PH domain fused to the VP16 activation domain (from UniProt P31749 5-108),"luciferase reporter interaction signal in mammalian 2-hybrid assay, compared to WT-PH/WT-KD or E17K-PH/WT-KD",[1],50 % reduction
AKT1 PH domain (WT) fused to the VP16 activation domain (from UniProt P31749 5-108),"luciferase reporter interaction signal in mammalian 2-hybrid assay, compared to WT-PH/WT-KD or E17K-PH/WT-KD",[2],50 % reduction
